Tested on: MS2 coat protein
Experiment: apparent KD of MS2 coat protein; designed switch direction (-1 OFF switch, 1 ON switch): 1; higher = weaker reporter binding
Summary of the method: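 Each step of the titration lasted 0.8–1.5 h at the lowest concentration and 10–20 min at the highest. The protein, SNAP-549-labelled MS2 coat protein, went from 0.7 or 1.5 nM doubling to 3 µM over RNA switches transcribed on Illumina chips by stalled E. coli RNA polymerase. Normalised cluster fluorescence was curve-fitted, and the per-design median over clusters is given as apparent KD.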

[1] = input ligand: microRNA oligo, concentration not stated
[2] = Eterna round: R95, input ligand: FMN 200 uM
[3] = Eterna round: R95, input ligand: microRNA oligo, concentration not stated
[4] = Eterna round: R95, input ligand: none

| Sequence | apparent KD of MS2 coat protein (input ligand: FMN 200 uM) [nM] | apparent KD of MS2 coat protein [1] [nM] | apparent KD of MS2 coat protein (input ligand: none) [nM] | apparent KD of MS2 coat protein [2] [nM] | apparent KD of MS2 coat protein [3] [nM] | apparent KD of MS2 coat protein [4] [nM] |
| --- | --- | --- | --- | --- | --- | --- |
| UAUCCAUAGAUAGGAUAUCAGUAUACAUGAGGAUCACCCAUGUUCUAUUUGGUUUUAAUUUAUUCUGAGAAGGAUCUUGAUGAA [SameState NG2 #1] (Eterna round: R96, puzzle: Same State NG 2) | 13.8 | 16.4 | 17.6 | – | – | – |
| UAGCUUGUGGUAGGAUAUCUAGGAUAUGGGAAGAGCUAAGCUUGGAAGUCACUUCACCCAGAAGGAGAGAAGGACCAGAGGCUU [pwkr ssNG2 2FMN + F9.6] (Eterna round: R96, puzzle: Same State NG 2) | 218 | 73.6 | 262 | – | – | – |
| AAUUAAGAUCAAGGAUAUCACGUCGUUUAGACGUGAGAAGGUGAUAAUUACAUGAGGAUCACCCAUGUAUAACAUGAAUUAAUU [SSNG1/9-B3] (Eterna round: R96, puzzle: Same State NG 1) | 25.5 | 27.5 | 32.1 | – | – | – |
| UUGUUUGGUAAAAUACAUGAGGAUCACCCAUGUUAUGGUGCAGAGGAUAUGCAUGUUUGAUUGUAGCAGAAGGCUGUUUGUUGU [JR_SSNG3_Sub035] (Eterna round: R96, puzzle: Same State NG 3) | 41.5 | 29.7 | 42.5 | – | – | – |
| AACUAUCUAUCUGAGGAUAUCAUGAAAUAAACAUGAGGAUCACCCAUGUGCAGGAAAACUGCAUAUGAGAAGGCAGAUAGAUUGA [salish99_ss2_r3_021] (puzzle: Same State 2) | – | – | – | 66.6 | 1250 | 2000 |
| GAGUGGCAGUUAGGAUAUAUAGUGAUAAUUACAAUAGAAGGAACAGACAUGAGGAUCACCCAUGUAGGACUAAUCCAGAGAGAG [Parity 38 - Jieux - Same State NG 1] (Eterna round: R96, puzzle: Same State NG 1) | 30.9 | 20.6 | 30.9 | – | – | – |
| UAGAAACAUGAGGAUCACCCAUGUGUCAAAGACAUAGGAUAUCGUGACCGGCGCCGGACACGAGAAGGGUGGUAAA [Quingees] (puzzle: Same State 1) | – | – | – | 387 | 209 | 386 |
| UCUUGGUUUUUGCUCGUUUUUUGUGUUGAACAUGAGGAUCACCCAUGUAUUGUACGGUCCGAUUUAAUAAUGGUCCA [JMF 38] (puzzle: Sensor for hsa-mir-208a) | – | – | – | 30.3 | 18.3 | 32.4 |
| UUUGGGUGGCUGGAGGAUAUUCGAGUGGUUACAUGAGGAUCACCCAUGUGUCGCGCGGUACGCGAGGAGAAGGCUGGCGGCCGUU (puzzle: Same State 2) | – | – | – | – | 53.4 | – |
| UAGAAACAUGAGGAUCACCCAUGUGUCAAAGACAUAGGAUAUCGUAACCGGCGCCGAAUACGAGAAGGGUGGUAAA [Arares] (puzzle: Same State 1) | – | – | – | 183 | 74.9 | 166 |
| GUAGAAUAACUAGAGGAUAUCCGAGUGGUAACAUGAGGAUCACCCAUGUGAUGAAAGGAACAUGAGGAGAAGGCUAGAAUGAAUG [Mat - Same State 2 - Mod of JL - D84] (puzzle: Same State 2) | – | – | – | 23.4 | 38.4 | 88.3 |
| UCCGCUAUCUAGAAGGAUAUGCGUAUAUAAACAUGAGGAUCACCCAUGUACCGGCGAAAACCGGUGCAGAAGGUUUAGCUAGUGA [Rediin] (puzzle: Same State 2) | – | – | – | 42.3 | 273 | 502 |
| GUAGCAUACCGAGGAUAUUCAUAUAAUACAUGAGGAUCACCCAUGUUAUAUAGGCGAAAGCCUUGGGAGAAGGCGGAAUGCUAC [Xeonanis - 20 Mod65] (Eterna round: R96, puzzle: Same State NG 2) | – | 10.9 | – | – | – | – |
| AGCUAUUAAUCAGGAUAUGGUGACAUGAGGAUCACCCAUGUAUAGAUGAUUAAAUGUGGUCUAUACUAGAAGGGAUUACUAACA [SameState NG2 #53] (Eterna round: R96, puzzle: Same State NG 2) | 2210 | 478 | 626 | – | – | – |
| GGAGAGAGAGCGCAGGAUAUUCAAGGAGAAACAUGAGGAUCACCCAUGUGAGAGAGAGAGGAGAGGGAGAAGGGUGAGAGAGAGG [Altered State 2-13 - Jieux - Same State 2] (puzzle: Same State 2) | – | – | – | 23.1 | 30.4 | 33.6 |
| AACCUAGGCAGAGGAUAUCUGGACGCGCGCACCAGAGAAGGCUGCGAGCCCUGAAUAUACAUGAGGAUCACCCAUGUCCCGCAC [Eternabot solution 15] (Eterna round: R96, puzzle: Same State NG 1) | 31.2 | 27.8 | 26.5 | – | – | – |
| AUAGUUGCCGAAGGAUAUGAUGAGGAUCACCCAUCAGAAGGUUGGCUAUUGGGUGGACAUGAGGAUCACCCAUGUUCUUUGGUA (Eterna round: R96, puzzle: Same State NG 1) | 64.2 | 107 | 140 | – | – | – |
| UCAGUCAUGUAAGGAUAUGCAGCCGUUUCGGCUGCAGAAGGUACUAUAAUUACAUGAGGAUCACCCAUGUUAUAAAAUUUAUAU [JL SSNG1 1.25] (Eterna round: R96, puzzle: Same State NG 1) | – | 38.8 | – | – | – | – |
| GAGGGCGAAAGCAACAUGAGGAUCACCCAUGUCCUCGGAGGUCAGGAUAUCCGGCGGUAGCCGAAGGAGAAGGGACGGUGAACC [AK SSNG3-V2-32.1] (Eterna round: R96, puzzle: Same State NG 3) | 180 | 97.5 | 175 | – | – | – |
| AUAAGUUUGAUGCUCGUCUCUCCGUACAAACAUGAGGAUCACCCAUGUGGUCGGGAAGUAGCCCGGCCGGUAUGGCC [Atusri] (puzzle: Sensor for hsa-mir-208a) | – | – | – | 16.7 | 14.1 | 15.8 |
| ACAAGCUUUUUAGGAGAGAAAGGUGGGAUACAUGAGGAUCACCCAUGUAUUGUUGUUAAUAGUGGACCUCGUCUUAU [JR_SHM208A_Sub083] (puzzle: Sensor for hsa-mir-208a) | – | – | – | 26.5 | 15.7 | 29.2 |
| AGCUUUUAAUCAGGAUAUGGUCACAUGAGGAUCACCCAUGUAACGAUGAUAUAAUGUGGUCAAGACUAGAAGGGAUUGCUAACA [SameState NG2 #67] (Eterna round: R96, puzzle: Same State NG 2) | 172 | 232 | 288 | – | – | – |
| AUAAAACAUGAGGAUCACCCAUGUAGACACGAUGGAGGAUAUACUAGAUCGAAAGAUCUAGUAGAAGGCCGACGUA [Mat - Same State 1 - JL mod - D95] (Eterna round: R96, puzzle: Same State 1) | 21.8 | 15.6 | 19.7 | – | – | – |
| UAGAGAGGAAGCGAGGAUAUCGUGGGAGGAACAUGAGGAUCACCCAUGUGUGAUGUUGAGAGGGACGAGAAGGCGCGGGAAAUUA [JR_SS2_Sub080] (puzzle: Same State 2) | – | – | – | 176 | 160 | 175 |
